# Data from publication PMC11269473, “Monoamine oxidase inhibition properties of 2,1-benzisoxazole derivatives” (Molecular Diversity, 2023).
# B1: recombinant human MAO-B (Homo sapiens) (protein)
# chain: MSNKCDVVVVGGGISGMAAAKLLHDSGLNVVVLEARDRVGGRTYTLRNQKVKYVDLGGSYVGPTQNRILRLAKELGLETYKVNEVERLIHHVKGKSYPFRGPFPPVWNPITYLDHNNFWRTMDDMGREIPSDAPWKAPLAEEWDNMTMKELLDKLCWTESAKQLATLFVNLCVTAETHEVSALWFLWYVKQCGGTTRIISTTNGGQERKFVGGSGQVSERIMDLLGDRVKLERPVIYIDQTRENVLVETLNHEMYEAKYVISAIPPTLGMKIHFNPPLPMMRNQMITRVPLGSVIKCIVYYKEPFWRKKDYCGTMIIDGEEAPVAYTLDDTKPEGNYAAIMGFILAHKARKLARLTKEERLKKLCELYAKVLGSLEALEPVHYEEKNWCEEQYSGGCYTTYFPPGILTQYGRVLRQPVDRIYFAGTETATHWSGYMEGAVEAGERAAREILHAMGKIPEDEIWQSEPESVDVPAQPITTTFLERHLPSVPGLLRLIGLTTIFSATALGFLAHKRGLLVRV
# notes: purchased Sigma-Aldrich; host or cells: insect cells (microsomes)
# B2: recombinant human MAO-A (Homo sapiens) (protein)
# chain: MENQEKASIAGHMFDVVVIGGGISGLSAAKLLTEYGVSVLVLEARDRVGGRTYTIRNEHVDYVDVGGAYVGPTQNRILRLSKELGIETYKVNVSERLVQYVKGKTYPFRGAFPPVWNPIAYLDYNNLWRTIDNMGKEIPTDAPWEAQHADKWDKMTMKELIDKICWTKTARRFAYLFVNINVTSEPHEVSALWFLWYVKQCGGTTRIFSVTNGGQERKFVGGSGQVSERIMDLLGDQVKLNHPVTHVDQSSDNIIIETLNHEHYECKYVINAIPPTLTAKIHFRPELPAERNQLIQRLPMGAVIKCMMYYKEAFWKKKDYCGCMIIEDEDAPISITLDDTKPDGSLPAIMGFILARKADRLAKLHKEIRKKKICELYAKVLGSQEALHPVHYEEKNWCEEQYSGGCYTAYFPPGIMTQYGRVIRQPVGRIFFAGTETATKWSGYMEGAVEAGERAAREVLNGLGKVTEKDIWVQEPESKDVPAVEITHTFWERNLPSVSGLLKIIGFSTSVTALGFVLYKYKLLPRS
# notes: as for B1
# Columns and labels:
# [1] = substrate: NCCC(=O)c1ccccc1N; test: Lineweaver–Burk plots / mode of MAO-B inhibition and Ki; type: biochemical, human; conditions: other: global (shared) fitting of the kinetic data; pH 7.4; 37.0 °C
# Experimental: (§1) These two compounds represent potent MAO inhibitors among the study compounds. […] Each line of the Lineweaver–Burk plots was constructed with the kynuramine concentration ranging from 15 to 250 μM.
# (§2) The insets are replots of the slopes of the Lineweaver–Burk plots versus inhibitor concentration. The Ki value equals the negative of the x-axis intercept when y = 0
# (§3) IC50 values for the inhibition of MAO were measured as described previously. Microsomes from insect cells containing recombinant human MAO-A and MAO-B (5 mg protein/mL) served as enzyme sources (Sigma-Aldrich) while kynuramine was used as non-specific MAO substrate. The enzyme reactions (200 µL reactions prepared in 96-well microtiter plates) contained phosphate buffer (100 mM, pH 7.4), 50 µM kynuramine and the test inhibitors at concentrations of 0.003–100 µM. Stock solutions of the test inhibitors were dissolved in DMSO and added to the enzyme reactions to give a final DMSO concentration of 4% (v/v). […] The concentration of 4-hydroxyquinoline, the product of kynuramine oxidation by MAO, was measured by fluorescence spectrophotometry (λex = 310 nm; λem = 400 nm). […] IC50 values were estimated in triplicate determinations from these plots and are expressed as mean ± standard deviation (SD). […]
# [2] = substrate: NCCC(=O)c1ccccc1N; test: Lineweaver–Burk plots / mode of MAO-A inhibition and Ki; type: biochemical, human; conditions: other: global (shared) fitting of the kinetic data; pH 7.4; 37.0 °C
# Experimental: as §1, §2, §3
Protein,Km [1],Vmax [1],Km [2],Vmax [2]
B1,32.4 ± 3.73 µM,8.39 ± 0.28 nmol/min.mg protein,–,–
B2,–,–,49.8 ± 3.07 µM,34.0 ± 0.80 nmol/min.mg protein
